Source: article PMC1925066, “Optical biosensor differentiates signaling of endogenous PAR1 and PAR2 in A431 cells” (BMC Cell Biology, 2007)

How the values were obtained:
[1] = test system: endogenous PAR1 and PAR2 in A431 cells; assay: MRCAT resonant waveguide grating biosensor DMR assay in quiescent A431 cells; assay type: cell-based, human; conditions: for EC50: A431 cells
Experimental: (§1) Human epidermoid carcinoma A431 cells ([…]) were grown in Dulbecco's modified Eagle's medium (DMEM) supplemented with 10% fetal bovine serum (FBS), 4.5 g/liter glucose, 2 mM glutamine, and antibiotics. ~5 × 10^4 cells at passage 3 to 8 suspended in 200 μl the DMEM medium containing 10% FBS were placed in each well of a 96well microplate, and were cultured at 37°C under air/5% CO2 for ~2 days, followed by ~20 hr starvation through continuously culturing in the serum-free DMEM.
Corning® Epic™ angular interrogation system with transverse magnetic or p-polarized TM0 mode was used for all studies. The detailed instrumental setup and assay protocols had been previously described. Briefly, all compound solutions were prepared using 1 × HBSS containing minimal amount of dimethyl sulfoxide, while the starved cells were washed and maintained with 100 μl the serum-free DMEM. The cells were then treated with 50 μl 1 × HBSS buffered solution in the absence and presence of a compound, followed by stimulation with ligand solutions. The cellular responses were monitored in real time throughout the assays.
(§2) Unless specifically mentioned, three replicates were carried out for each measurement or each compound. The standard deviation was derived from these measurements (n = 3). […] All dose-dependent responses were analyzed using non-linear regression method with the Prism software (Graph Pad).

[2] = test system: endogenous PAR1 and PAR2 in A431 cells; assay: Fluo-3 Ca2+ mobilization (Ca2+ flux) assay in quiescent A431 cells; assay type: cell-based, human
Experimental: as §1
Cells were grown in Costar™ 96well clear cell culture microplates. After starvation, the cells were washed with 1× HBSS (1× regular Hank's balanced salt solution, 20 mM HEPES buffer, pH 7.0) in the presence of 2.5 mM probenicid, and labeled in the same buffer containing 4 μM Fluo-3 for 1 hour at room temperature. The cells were then washed twice with buffer, maintained with 100 μl 1× HBSS containing 2.5 mM probenicid. The assay was initiated by transferring 50 μl PAR agonist solution to the cell plate, and calcium signal was recorded over 6 minutes with a 6 sec interval using HTS7000 BioAssay Reader (PerkinElmer Life Science, Boston, MA). The fluorescent intensity before stimulation was recorded and used as a baseline. The percentage increase in fluorescence intensity after stimulation, relative to the baseline fluorescence, was analyzed and used directly as a measure for the increase of intracellular Ca^2+ level induced by PAR agonists.
as §2

A431 cells = test system: A431 cells; design: method as in PMID 16766609; conditions: doses greater than ~1000 nM; cited from earlier work

- EC50 ([1]; amplitude of N-DMR event, read-out: EC50 (n = 3) N-DMR): 102 ± 21.9 nM
- EC50 ([1]; amplitude of P-DMR event, read-out: EC50 (n = 3) P-DMR): 98 ± 27.8 nM
- EC50 ([2]; A431 cells, read-out: EC50 (n = 3) Ca^2+ flux assay): 45.7 ± 5.8 nM
B1: Trypsin: serine protease, PAR2 agonist, purchased from Sigma (protein, UniProt P00760 24-246, looked up)
Serine protease 1: IVGGYTCGANTVPYQVSLNSGYHFCGGSLINSQWVVSAAHCYKSGIQVRLGEDNINVVEGNEQFISASKSIVHPSYNSNTLNNDIMLIKLKSAASLNSRVASISLPTSCASAGTQCLISGWGNTKSSGTSYPDVLKCLKAPILSDSSCKSAYPGQITSNMFCAGYLEGGKDSCQGDSGGPVVCSGKLQGIVSWGSGCAQKNKPGVYTKVCNYVSWIKQTIASN
- desensitization of trypsin-treated cells (DMR signal) ([1]; trypsin 200 nM first, repeated stimulation separated by ~1 hr): completely desensitized
- maximal [Ca^2+]i elevation ([2]; A431 cells, SFLLR-amide at 80 μM): 100 ± 6%
- responsiveness (Ca^2+ mobilization) after pre-stimulation with thrombin ([2]; thrombin 40 unit/ml first, separated by 6 min): only partially
- Ca^2+ mobilization response after pre-stimulation with trypsin ([2]; trypsin 200 nM first, repeated stimulation separated by 6 min): completely blocked
- cell detachment (A431 cells): significant cell detachment
